Among the data in patent US20220290188 are activity values, retold here.

What all share (assay): cell_activity
Data set [1] concerns TL8181 TALE-KRAB (synthetic). Conditions: TIM3, day 2.
In data set [2] the test system is TL11110 TALE-KRAB (synthetic). The conditions noted are these: PD-1, day 2.
The test system of data set [3] is TL11126 TALE-KRAB (synthetic). Conditions: PD-1, day 2.
Data set [4] relates to TL11102 TALE-KRAB (synthetic). The conditions noted are these: PD-1, day 2.
Data set [5] has as its system TL11088 TALE-KRAB (synthetic). Conditions: PD-1, day 2.
In data set [6] the test system is TL11877 TALE-KRAB (synthetic). The conditions noted are these: PD-1, day 2; table prints SEQ 63 but bases match SEQ 18.
For data set [7], the system named is TL11131 TALE-KRAB (synthetic). The conditions noted are these: PD-1, day 2.
Data set [8] deals with TL11112 TALE-KRAB (synthetic). Conditions: PD-1, day 2.
For data set [9], the system named is TL11105 TALE-KRAB (synthetic). Conditions: PD-1, day 2.
The subject of data set [10] is TL11087 TALE-KRAB (synthetic). Conditions: PD-1, day 2.
For data set [11], the system named is TL11132 TALE-KRAB (synthetic). The conditions noted are these: PD-1, day 2.
Data set [12] concerns TL11133 TALE-KRAB (synthetic). Conditions: PD-1, day 2.
In data set [13] the test system is TL11124 TALE-KRAB (synthetic). Conditions: PD-1, day 2.
For data set [14], the system named is TL11092 TALE-KRAB (synthetic). The conditions noted are these: PD-1, day 2.
The subject of data set [15] is TL11127 TALE-KRAB (synthetic). Conditions: PD-1, day 2.
Data set [16] deals with TL8241 TALE-KRAB (synthetic). Conditions: LAG3, day 2.
In data set [17] the test system is TL11879 TALE-KRAB (synthetic). Conditions: PD-1, day 2.
Data set [18] concerns TL11130 TALE-KRAB (synthetic). Conditions: PD-1, day 2.
For data set [19], the system named is TL11876 TALE-KRAB (synthetic). The conditions noted are these: PD-1, day 2.
For data set [20], the system named is TL8201 TALE-KRAB (synthetic). Conditions: TIM3, day 2.
Data set [21] has as its system TL11875 TALE-KRAB (synthetic). Conditions: PD-1, day 2.
For data set [22], the system named is TL11099 TALE-KRAB (synthetic). The conditions noted are these: PD-1, day 2.
Data set [23] has as its system TL8222 TALE-KRAB (synthetic). Conditions: LAG3, day 2.
Data set [24] concerns TL8220 TALE-KRAB (synthetic). The conditions noted are these: LAG3, day 2.
In data set [25] the test system is TL11129 TALE-KRAB (synthetic). The conditions noted are these: PD-1, day 2.
Data set [26] deals with TL11128 TALE-KRAB (synthetic). Conditions: PD-1, day 2.
For data set [27], the system named is TL11103 TALE-KRAB (synthetic). The conditions noted are these: PD-1, day 2.
Data set [28] concerns TL11119 TALE-KRAB (synthetic). Conditions: PD-1, day 2.
In data set [29] the test system is TL11096 TALE-KRAB (synthetic). The conditions noted are these: PD-1, day 2.
In data set [30] the test system is TL8188 TALE-KRAB (synthetic). The conditions noted are these: TIM3, day 2.
The subject of data set [31] is TL11084 TALE-KRAB (synthetic). Conditions: PD-1, day 2.
Data set [32] relates to TL11108 TALE-KRAB (synthetic). Conditions: PD-1, day 2.
Data set [33] concerns TL11093 TALE-KRAB (synthetic). Conditions: PD-1, day 2.
For data set [34], the system named is TL8214 TALE-KRAB (synthetic). Conditions: LAG3, day 2.
The subject of data set [35] is TL11094 TALE-KRAB (synthetic). Conditions: PD-1, CD3+ T cells, day 2.
The subject of data set [36] is TL11104 TALE-KRAB (synthetic). The conditions noted are these: PD-1, day 2.
For data set [37], the system named is TL11101 TALE-KRAB (synthetic). The conditions noted are these: PD-1, day 2.
In data set [38] the test system is TL8216 TALE-KRAB (synthetic). Conditions: LAG3, day 2.
Data set [39] deals with TL9598 TALE-KRAB (synthetic). Conditions: LAG3, day 2.
In data set [40] the test system is pAL040 TALE-KRAB (synthetic). Conditions: PD-1, day 2.
Data set [41] has as its system TL9342 TALE-KRAB (synthetic). The conditions noted are these: TIM3, day 2.
For data set [42], the system named is TL8189 TALE-KRAB (synthetic). The conditions noted are these: TIM3, day 2.
In data set [43] the test system is TL9337 TALE-KRAB (synthetic). The conditions noted are these: TIM3, day 2.
For data set [44], the system named is TL9606 TALE-KRAB (synthetic). The conditions noted are these: LAG3, day 2.
Data set [45] relates to pAL043 (PD02) TALE-KRAB (synthetic). Conditions: PD-1, day 2.
Data set [46] deals with TL9339 TALE-KRAB (synthetic). The conditions noted are these: TIM3, day 2.
In data set [47] the test system is TL9820 TALE-KRAB (synthetic). The conditions noted are these: LAG3, day 2.
Data set [48] deals with TL11106 TALE-KRAB (synthetic). The conditions noted are these: PD-1, day 2.
Data set [49] deals with TL9717 TALE-KRAB (synthetic). Conditions: LAG3, day 2.

For “ACTTCTTCCAACTGT (double strand) [TL8181 site]”, the activity in data set [1] is over 50 % repression.

With “CAACCTGACCTGGGACAGTT (double strand) [TL11110 site]”, the activity in [2] is over 80 % repression.

“CACTCTCGCCCACGTGGAT (double strand) [TL11126 site]” came in with an activity in [3] of over 50 % repression.

In turn, “CCACTGCTCAGGCGGAGGT (double strand) [TL11102 site]” gave an activity in data set [4] of over 50 % repression.

Turning to “CCCACAGGCGCCCTGG (double strand) [TL11088 site]”, in data set [5], the activity is over 50 % repression.

In the case of “CCCAGGTCAGGTTGAAG (double strand) [TL11877 site]”, the activity in [6] is over 80 % repression.

In data set [7], “CCCCCAGCACTGCCTCT (double strand) [TL11131 site]” came in with an activity of over 50 % repression.

Regarding “CCCTTCAACCTGACCT (double strand) [TL11112 site]”, the activity in [8] is over 80 % repression.

In data set [9], “CCCTTCCGCTCACCTCCGC (double strand) [TL11105 site]” had an activity of over 80 % repression.

As to “CCTCCACATCCACGTGGGC (double strand) [TL11087 site]”, the activity in data set [10] was over 50 % repression.

In turn, “CCTCCCCCAGCACTGC (double strand) [TL11132 site]” yielded an activity in data set [11] of over 80 % repression.

Sequence “CCTCCCCCAGCACTGCC (double strand) [TL11133 site]” registered an activity in data set [12] of over 80 % repression.

On to “CTCGCCCACGTGGATGTGG (double strand) [TL11124 site]”, for which, in [13], the activity was over 50 % repression.

In data set [14], “CTGCATGCCTGGAGCAG (double strand) [TL11092 site]” gave an activity of over 50 % repression.

Consider “CTGTCACTCTCGCCCACGT (double strand) [TL11127 site]”, for which the activity in [15] was over 50 % repression.

“CTGTTCCCTGGGACACCCCC (double strand) [TL8241 site]” registered an activity in data set [16] of over 50 % repression.

For the sequence “CTTCCTCCACATCCACG (double strand) [TL11879 site]”, the activity in data set [17] is over 50 % repression.

Take “GACAGAGGCAGTGCTGG (double strand) [TL11130 site]”: in data set [18], the activity was over 50 % repression.

Consider “GACCTGGGACAGTTTCC (double strand) [TL11876 site]”, for which the activity in [19] is over 80 % repression.

Regarding “GAGAAAATTGTATTAGAT (double strand) [TL8201 site]”, the activity in data set [20] is over 50 % repression.

As to “GCAGATCCCACAGGCGC (double strand) [TL11875 site]”, in [21], the activity was over 80 % repression.

Take “GCCGCCTTCTCCACT (double strand) [TL11099 site]”: the activity in data set [22] is over 80 % repression.

Take “GCCGTTCTGCTGGTCT (double strand) [TL8222 site]”: in [23], the activity was over 80 % repression.

In turn, “GCCGTTCTGCTGGTCTCT (double strand) [TL8220 site]” yielded an activity in [24] of over 80 % repression.

In [25], “GCCTCTGTCACTCTCG (double strand) [TL11129 site]” returned an activity of over 80 % repression.

Consider “GCCTCTGTCACTCTCGCCC (double strand) [TL11128 site]”, for which the activity in data set [26] was over 80 % repression.

Regarding “GCTCAGGCGGAGGTGAG (double strand) [TL11103 site]”, the activity in data set [27] was over 50 % repression.

Take “GCTCCCGCCCCCTCTTCCT (double strand) [TL11119 site]”: in data set [28], the activity was over 50 % repression.

Consider “GGAGCAGCCCCACCAGAGT (double strand) [TL11096 site]”, for which the activity in data set [29] was over 50 % repression.

“GGCAGTGTTACTATAA (double strand) [TL8188 site]” returned an activity in data set [30] of over 80 % repression.

For “GGCCAGGGCGCCTGT (double strand) [TL11084 site]”, in data set [31], the activity was over 50 % repression.

“GGGACAGTTTCCCTTC (double strand) [TL11108 site]” came in with an activity in data set [32] of over 80 % repression.

The sequence “GGGGCTGCTCCAGGCATGC (double strand) [TL11093 site]” had an activity in [33] of over 50 % repression.

As for “GGTCTCTGGGCCTTCA (double strand) [TL8214 site]”, the activity in data set [34] was over 80 % repression.

“GGTGGGGCTGCTCCAGG (double strand) [TL11094 site]”: the activity in [35] is over 80 % repression.

Sequence “TCCGCTCACCTCCGCCTGA (double strand) [TL11104 site]” had an activity in [36] of over 80 % repression.

In data set [37], “TCTCCACTGCTCAGGCG (double strand) [TL11101 site]” showed an activity of over 80 % repression.

In the case of “TCTGCTGGTCTCTGGGCC (double strand) [TL8216 site]”, in [38], the activity was over 80 % repression.

As to “TCTGCTGGTCTCTGGGCCTTC (double strand) [TL9598 site]”, the activity in data set [39] was over 80 % repression.

As to “TCTGTCACTCTCGCCCAC (double strand) [pAL040 site]”, the activity in data set [40] was over 80 % repression.

In the case of “TGCCACACTACACACAT (double strand) [TL9342 site]”, the activity in data set [41] was over 80 % repression.

As for “TGCCAGTGATTCTTATAGT (double strand) [TL8189 site]”, the activity in data set [42] is over 80 % repression.

As to “TGGCAATCAGACACCCGGGTG (double strand) [TL9337 site]”, the activity in data set [43] is over 80 % repression.

“TGGTCTCTGGGCCTTCACCC (double strand) [TL9606 site]” showed an activity in data set [44] of over 80 % repression.

In data set [45], “TGGTGGGGCTGCTCC (double strand) [pAL043 site]” showed an activity of over 80 % repression.

Regarding “TGTCTGATTGCCAGTGATT (double strand) [TL9339 site]”, in data set [46], the activity is over 80 % repression.

As for “TTCACCCCTGTGCCCGGCCTTCC (double strand) [TL9820 site]”, the activity in data set [47] was over 80 % repression.

Regarding “TTCCCTTCCGCTCACC (double strand) [TL11106 site]”, the activity in data set [48] is over 80 % repression.

For “TTTGCTCTGTCTGCTC (double strand) [TL9717 site]”, the activity in [49] was over 80 % repression.
